In patent US20220048996A1 (F STAR BETA, published 2022):

Key:
[1] = target: T1, human OX40 expressed on DO11.10 cells (DO11.10-hOX40) (human, UniProt P43489 29-277); assay: flow cytometry on DO11.10 cells expressing the target
T1 construct: Also used here for OX40 on primary human T cells in the functional rows; also called human OX40 receptor; OX40 on human T cells
T1 sequence: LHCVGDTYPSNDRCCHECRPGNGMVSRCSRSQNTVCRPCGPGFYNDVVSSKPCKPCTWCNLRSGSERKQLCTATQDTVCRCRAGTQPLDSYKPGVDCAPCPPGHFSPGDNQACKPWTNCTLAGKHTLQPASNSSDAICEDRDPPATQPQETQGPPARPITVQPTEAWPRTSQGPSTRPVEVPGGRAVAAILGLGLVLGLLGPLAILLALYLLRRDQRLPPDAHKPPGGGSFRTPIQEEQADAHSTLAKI

[2] = target: T2, cynomolgus CD137 expressed on DO11.10 cells (DO11.10-cCD137) (cynomolgus monkey, UniProt Q07011 24-255 (human entry)); assay: as above
T2 chain: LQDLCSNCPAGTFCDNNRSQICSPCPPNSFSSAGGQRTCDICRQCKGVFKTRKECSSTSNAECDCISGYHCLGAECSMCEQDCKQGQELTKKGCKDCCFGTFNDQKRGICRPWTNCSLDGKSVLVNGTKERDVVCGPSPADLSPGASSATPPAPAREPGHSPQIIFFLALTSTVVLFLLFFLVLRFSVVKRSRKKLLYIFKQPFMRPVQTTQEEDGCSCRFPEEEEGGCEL

[3] = target: T3, human CD137 expressed on DO11.10 cells (DO11.10-hCD137) (human, UniProt Q07011 24-255); assay: as above
T3 construct: also called CD137 on human T cells

[4] = target: T4, cynomolgus OX40 expressed on DO11.10 cells (DO11.10-cOX40) (cynomolgus, UniProt P43489 29-277 (human entry)); assay: as above
T4 chain: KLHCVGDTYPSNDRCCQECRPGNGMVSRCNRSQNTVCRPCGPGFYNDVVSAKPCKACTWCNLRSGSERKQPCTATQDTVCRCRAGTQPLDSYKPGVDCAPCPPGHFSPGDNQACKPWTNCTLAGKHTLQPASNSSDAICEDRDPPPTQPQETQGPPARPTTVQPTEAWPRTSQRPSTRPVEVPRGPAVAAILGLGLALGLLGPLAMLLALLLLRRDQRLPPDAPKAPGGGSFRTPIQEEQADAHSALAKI

[5] = target: T5, hFcγR3a (R&D Systems 4325-FC-050/CF) (human, UniProt P08637 17-208); assay: SPR, antibody 100 nM on CD137-his chip co-injected with FcγR 500 nM
T5 construct: Bought; In the ADCC bioassay FcγRIIIa stood on engineered Jurkat cells; also called FcγRIIIa
Protocol: (§1) Binding was tested on a Biacore 3000 instrument (GE Healthcare). Human OX40 (BPS Bioscience cat no 71310) and human CD137 (produced in house) biotinylated his-tagged antigens were coated onto an SA chip (GE Healthcare cat no BR100398) at 2 μM concentration. Human OX40 and human CD137 were coated on separate flow cells, while another flow cell was left blank for background subtraction. Regeneration conditions were determined to be 12 μl aqueous 10 mM glycine-HCl at pH2.0 at 20 μl/min flow rate. Antibodies (see Table 8) and human FcγRs (see Table 8) were diluted to 100 nM (antibodies) or 500 nM (human FcγRs) in HBS-P (0.01 M HEPES pH 7.4, 0.15 M NaCl, 0.005% v/v Surfactant P20, GE Healthcare, BR-1003-68) and co-injected at 20 μl/min flow rate and the dissociation was followed for 5 min.
(§2) Data analysis was performed with BiaEvaluation software version 3.2 RC1 by referencing against the blank flow cell and aligning the curves after the association of the antibody. Values for binding response at the end of the association phase were generated by subtracting the […] to normalize the effect of the antibody binding to the OX40 and CD137 receptors.

[6] = target: T6, hFcγR2a (R&D Systems 1330-CD-050/CF) (human, UniProt P12318 36-218, limits assumed); assay: as above
T6 construct: Bought; also called FcγRIIa
T6 sequence (looked up): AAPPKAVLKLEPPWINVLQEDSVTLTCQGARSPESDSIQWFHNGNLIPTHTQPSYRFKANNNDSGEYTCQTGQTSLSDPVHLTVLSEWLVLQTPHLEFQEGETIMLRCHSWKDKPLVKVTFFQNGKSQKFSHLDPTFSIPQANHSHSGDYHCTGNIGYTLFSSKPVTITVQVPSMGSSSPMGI
Protocol: as §1, §2

[7] = target: T7, hFcγR2b (R&D Systems 1460-CD-050/CF) (human, UniProt P31994 46-217, limits assumed); assay: as above
T7 construct: Bought; also called FcγRIIb
T7 sequence (looked up): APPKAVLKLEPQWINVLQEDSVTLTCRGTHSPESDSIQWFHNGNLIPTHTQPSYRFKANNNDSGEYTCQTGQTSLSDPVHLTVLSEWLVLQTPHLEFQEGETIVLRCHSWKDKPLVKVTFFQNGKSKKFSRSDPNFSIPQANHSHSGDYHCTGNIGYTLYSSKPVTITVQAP
Protocol: as §1, §2

[8] = target: T2, cynomolgus CD137 expressed on DO11.10 …; assay: flow cytometry on DO11.10 cells expressing the target, mean ± SD of three experiments
Protocol: 50 μl of the antibody dilutions were added to the wells containing cells (final volume 100 μl) and incubated at 4° C. for 1 hour. […] The plates were washed and resuspended in 100 μl of PBS containing DAPI (Biotium, cat no 40043) at 1 μg/ml. The plates were analysed using a Canto II flow cytometer (BD Bioscience) and the data analysed using FlowJo. Dead cells were identified by their higher fluorescence on the UV (405 nm/450/50) channel and excluded from analysis. […] The GMFI data was fit using log (agonist) vs response (three parameters) in Graph Pad Prism Software to generate EC₅₀ values.
However, in this experiment, instead of using HEK cells to analyse the non-specific binding, non-transduced DO11.10 cells were used. […] The experiment was repeated three times to increase the reliability of the EC₅₀ values calculated.

T5 sequence (P08637 17-208 limits assumed): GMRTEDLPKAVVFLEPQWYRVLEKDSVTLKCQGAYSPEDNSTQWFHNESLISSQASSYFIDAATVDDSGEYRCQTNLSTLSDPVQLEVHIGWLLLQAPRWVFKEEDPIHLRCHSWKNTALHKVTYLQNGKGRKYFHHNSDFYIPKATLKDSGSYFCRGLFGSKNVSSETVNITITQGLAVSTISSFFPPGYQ

B1: FS20-22-49AA/FS30-10-16 (bispecific antibody, human IgG1, kappa, L234A L235A)
heavy: EVQLLESGGGLVQPGGSLRLSCAASGFTFSSYDMSWVRQAPGKGLEWVSDIDPTGSKTDYADSVKGRFTISRDNSKNTLYLQMNSLRAEDTAVYYCARDLLVYGFDYWGQGTLVTVSSASTKGPSVFPLAPSSKSTSGGTAALGCLVKDYFPEPVTVSWNSGALTSGVHTFPAVLQSSGLYSLSSVVTVPSSSLGTQTYICNVNHKPSNTKVDKKVEPKSCDKTHTCPPCPAPEAAGGPSVFLFPPKPKDTLMISRTPEVTCVVVDVSHEDPEVKFNWYVDGVEVHNAKTKPREEQYNSTYRVVSVLTVLHQDWLNGKEYKCKVSNKALPAPIEKTISKAKGQPREPQVYTLPPSRDEYWDQEVSLTCLVKGFYPSDIAVEWESNGDEQFAYKTTPPVLDSDGSFFLYSKLTVDQYRWNPADYFSCSVMHEALHNHYTQKSLSLSPG
light: EIVLTQSPGTLSLSPGERATLSCRASQSVSSSYLAWYQQKPGQAPRLLIYGASSRATGIPDRFSGSGSGTDFTLTISRLEPEDFAVYYCQQSYSYPVTFGQGTKVEIKRTVAAPSVFIFPPSDEQLKSGTASVVCLLNNFYPREAKVQWKVDNALQSGNSQESVTEQDSKDSTYSLSSTLTLSKADYEKHKVYACEVTHQGLSSPVTKSFNRGEC
notes: IgG1 with LALA; also called OX40/CD137 mAb^2; copies: 2 + 2
EC50 [1]: 0.157 nM | EC50 [2]: 0.0803 nM | EC50 [3]: 0.129 nM | EC50 [4]: 0.38 nM | binding response at end of association phase of FcγR [5]: 17.3 RU | binding response at end of association phase of FcγR [6]: 10.9 RU | binding response at end of association phase of FcγR [7]: 9 RU | EC50 [8]: 0.12 nM
